Like-named read-outs stand apart in the source and are kept apart here.
Columns and labels:
Experiment in all cases: EMSA
[1] = biological target: T1, Replication protein A (RPA heterotrimer) (human, UniProt P27694;P15927;P35244 1-616;1-270;1-121)
[2] = biological target: T1, Replication protein A (RPA heterotrimer); remark: listed apart in the source
[3] = biological target: T1, Replication protein A (RPA heterotrimer); remark: listed apart in the source
[4] = biological target: T1, Replication protein A (RPA heterotrimer); remark: listed apart in the source
[5] = biological target: T1, Replication protein A (RPA heterotrimer); remark: listed apart in the source

T1 sequence (P27694 whole entry, chain 1 of 3): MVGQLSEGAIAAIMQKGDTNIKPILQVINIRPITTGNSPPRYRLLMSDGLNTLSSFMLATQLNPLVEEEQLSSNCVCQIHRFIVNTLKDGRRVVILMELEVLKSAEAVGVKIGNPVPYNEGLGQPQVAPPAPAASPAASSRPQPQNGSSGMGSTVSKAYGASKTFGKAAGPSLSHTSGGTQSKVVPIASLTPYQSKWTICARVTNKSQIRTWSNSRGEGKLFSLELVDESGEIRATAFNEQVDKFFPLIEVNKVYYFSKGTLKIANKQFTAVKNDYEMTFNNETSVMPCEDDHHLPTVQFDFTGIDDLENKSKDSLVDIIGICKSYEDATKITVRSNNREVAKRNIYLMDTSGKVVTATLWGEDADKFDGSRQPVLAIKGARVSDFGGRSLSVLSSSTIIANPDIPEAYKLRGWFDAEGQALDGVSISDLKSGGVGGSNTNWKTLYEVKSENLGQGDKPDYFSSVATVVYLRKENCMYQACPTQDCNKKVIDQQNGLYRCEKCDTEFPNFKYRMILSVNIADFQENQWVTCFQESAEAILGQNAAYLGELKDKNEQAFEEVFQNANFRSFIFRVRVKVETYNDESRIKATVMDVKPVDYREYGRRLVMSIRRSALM
T1 sequence (P15927 whole entry, chain 2 of 3): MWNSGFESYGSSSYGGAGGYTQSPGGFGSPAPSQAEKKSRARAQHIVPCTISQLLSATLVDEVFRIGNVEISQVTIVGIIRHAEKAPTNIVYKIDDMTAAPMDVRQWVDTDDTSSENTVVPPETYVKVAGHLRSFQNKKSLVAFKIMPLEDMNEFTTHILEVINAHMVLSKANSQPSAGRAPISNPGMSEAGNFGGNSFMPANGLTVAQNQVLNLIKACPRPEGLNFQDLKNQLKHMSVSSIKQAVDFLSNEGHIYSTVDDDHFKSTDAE
T1 sequence (P35244 whole entry, chain 3 of 3): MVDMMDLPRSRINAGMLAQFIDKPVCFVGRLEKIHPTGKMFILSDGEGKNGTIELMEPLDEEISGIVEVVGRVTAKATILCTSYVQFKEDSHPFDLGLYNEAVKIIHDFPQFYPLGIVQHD

CGUUAAGGGAUUUUGGUCAUGAGAUUAUCAAAAAGGAUCUUCACCUAG (ssRNA) [RNA no. 7R] gave a Kd [1] of 0.248 ± 0.0327 nM.

GAAGCAUUUAUCAGGGUUAUUGUCUCAUGAGCGGAUACAUAUUUGAAU (ssRNA) [RNA no. 501] showed a Kd [2] of 0.101 ± 0.017 nM and a Kd [3] of 0.072 ± 0.0102 nM.

B1: RNA-DNA hybrid nos. 501/212 (DNA:RNA)
RNA: GAAGCAUUUAUCAGGGUUAUUGUCUCAUGAGCGGAUACAUAUUUGAAU
DNA: ATTCAAATATGTATCCGCTCATGAGACAATAACCCTGATAAATGCTTC
With B1 the Kd [2] was 85.9 ± 4.5 nM.

UUUUAAAUCAAUCUAAAGUAUAUAUGAGUAAACUUGGUCUGACAGUUA (ssRNA) [RNA no. 8R] gave a Kd [1] of 0.0629 ± 0.0082 nM.

AAUGCUUAAUCAGUGAGGCACCUAUCUCAGCGAUCUGUCUAUUUCGUU (ssRNA) [RNA no. 3R] gave a Kd [4] of 0.1 ± 0.0232 nM.

For GAAGCAUUUAUCAGGGUUAUUGUCUCAUGAGCGGAU (ssRNA) [RNA no. 6R (36 nt)], the “apparent K (half saturation)” value [5] was 65 nM.

Binder GAAGCATTTATCAGGGTTATTGTCTCATGAGCGGATACATATTTGAAT (ssDNA) [ssDNA no. 211] has a Kd [2] of 0.0031 ± 0.0006 nM.

B2: dsDNA nos. 211/212 (dsDNA)
DNA 1: GAAGCATTTATCAGGGTTATTGTCTCATGAGCGGATACATATTTGAAT
DNA 2: B1 DNA
For B2, the Kd [2] was 35.5 ± 7 nM.

GAAGCAUUUAUCAGGGUUAUUGUC (ssRNA) [RNA no. 5R (24 nt)] was tested, and the “apparent K (half saturation)” value [5] was 120 nM.
